Experimental data taken from publication PMC7173943.

Tests used:
HA-CXCR4(D20R)-Rluc3 = HA-CXCR4(D20R)-Rluc3 (UniProt P61073)
CXCR4(D187C)-T4L = CXCR4(D187C)-T4L (UniProt P61073); test: cross-linking + pull-down; disulfide cross-linking: Cys mutants co-expressed in Sf9 cells; membranes solubilised in DDM/CHS; TALON metal affinity pull-down by the receptor His tag; non-reducing SDS-PAGE and Western blot (anti-Flag, anti-HA); IR800 signal relative to CXCR4(D187C)-vMIP-II(W5C) set to 100%

β-arrestin-2 recruitment to HA-CXCR4-Rluc3 (BRET2, HEK293T cells), pEC50 (HA-CXCR4(D20R)-Rluc3) | Substance | fraction of extracted receptor cross-linked (CXCR4(D187C)-T4L) [%]
5.89 -log10(EC50) | CXCL12(R47E) (from UniProt P48061-2 22-89) (ligand) | –
– | vMIP-II(W5C) (ligand) | 100
